The target in this data set is SAMHD1 wt (human) (UniProt Q9Y3Z3). Put plainly: AFM.
Chain of SAMHD1 wt (human) (Q9Y3Z3 whole entry): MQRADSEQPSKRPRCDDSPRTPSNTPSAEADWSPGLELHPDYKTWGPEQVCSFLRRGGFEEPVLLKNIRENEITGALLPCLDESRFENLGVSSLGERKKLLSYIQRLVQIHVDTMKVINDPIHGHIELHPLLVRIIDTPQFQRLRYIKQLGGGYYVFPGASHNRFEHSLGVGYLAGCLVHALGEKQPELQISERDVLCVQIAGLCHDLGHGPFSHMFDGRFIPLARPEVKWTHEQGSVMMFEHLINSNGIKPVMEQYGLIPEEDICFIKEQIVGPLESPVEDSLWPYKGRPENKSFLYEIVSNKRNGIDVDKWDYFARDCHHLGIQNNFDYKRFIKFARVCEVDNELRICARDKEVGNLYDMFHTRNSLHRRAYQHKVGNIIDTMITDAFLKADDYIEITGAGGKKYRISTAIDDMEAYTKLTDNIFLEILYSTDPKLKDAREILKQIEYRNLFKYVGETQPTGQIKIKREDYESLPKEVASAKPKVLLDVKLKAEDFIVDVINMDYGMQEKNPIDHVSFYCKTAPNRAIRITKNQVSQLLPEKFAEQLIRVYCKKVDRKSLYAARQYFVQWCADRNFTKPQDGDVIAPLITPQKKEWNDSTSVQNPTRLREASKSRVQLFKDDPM

As to “GGUUAUUCUCUUAUUUAUUCUAUCUAUCUCUCUCUUCUCUAUUUCCUCACAUCCUCUCUCACUCUCUAUCUCUAUCUCCUCUCUCUUCUCUCUCUCUCUCUCUCCUCUCUAUAUUCUUCUCUCUUCUCUCCUCUCCUCUCUCUCUCUCUUUAUUCUUCCACUUUUUUCCUUCUCACUUCUCUUCUUCUUUAUUCUUCUCAUCUCAUCUCAUCUCAUCUCAUCUCAUCUCAUCUCAUCUCAUCUCAUCUCAUCUCAUCUCAUCUCAUCUCAUCUCAUCUCAUCUCAUCUCAUCUCAUCUCAUCUCAGG / TGAGAAGAATAAAGAAGAAGAGAAGTGAGAAGGAAAAAAGTGGAAGAATAAAGAGAGAGAGAGAGGAGAGGAGAGAAGAGAGAAGAATATAGAGAGGAGAGAGAGAGAGAGAGAAGAGAGAGGAGATAGAGATAGAGAGTGAGAGAGGATGTGAGGAAATAGAGAAGAGAGAGATAGATAGAATAAATAAGAGAATAACC [AFM RNA, 200 bp RNA:DNA duplex with 102 nt ssRNA overhang]”, the binding signal (% ssRNA ends bound) is 84.
“AFM DNA, 295 bp duplex with 60 nt ssDNA overhang” had a binding signal (% ssDNA ends bound) of 26.

The values above are taken from publication PMC4513882.
